From the supplement of paper PMC10567573

B1: OAS1 (parent)
chain: LTVYAWERGSMKTHFNTAQGFRTV
B2: ATE1 (parent)
chain: YGSFHQQYWLDGKIIAVGVIDILP

Variants of: B1
Assay: protein stability index of a GFP-peptide fusion (GPS, HEK-293T) (PSI 1-6); higher = more stable
Conditions: c terminus: a fixed tail appended
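Note: lentivirally expressed fusions sorted by FACS into six bins by GFP to DsRed ratio, PSI derived from sequencing read proportions per bin multiplied by bin number.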

First: A18G
Second: A18V
The protein stability index of the first is lower: 2.64 for the first, 3.42 for the second.

Going from A18N to A18H, the protein stability index rises from 2.63 to 3.09.

First: A18D
Second: A18L
The protein stability index of the first is lower: 4.02 for the first, 4.32 for the second.

Compared with A18T, A18F is higher in protein stability index: 2.39 for the first, 2.56 for the second.

Compared with A18Y, A18W is lower in protein stability index: 4.24 for the first, 2.73 for the second.

Going from A18K to A18M, the protein stability index rises from 2.67 to 2.79.

Compared with A18Q, A18R is higher in protein stability index: 2.79 for the first, 2.84 for the second.

First: A18E
Second: A18I
The protein stability index of the first is lower: 1.54 for the first, 4.47 for the second.

Compared with A18S, A18C is higher in protein stability index: 1.2 for the first, 1.88 for the second.

First: T17W
Second: T17Y
The protein stability index of the first is lower: 2.1 for the first, 2.64 for the second.

Compared with T17P, T17N is lower in protein stability index: 2.2 for the first, 1.72 for the second.

Going from T17R to T17M, the protein stability index falls from 2.38 to 1.74.

Going from T17S to T17L, the protein stability index falls from 3.12 to 2.17.

Going from T17Q to Q19T, the protein stability index falls from 4.87 to 2.88.

Going from Q19H to Q19K, the protein stability index falls from 2.65 to 2.43.

Compared with Q19S, Q19R is lower in protein stability index: 2.63 for the first, 2.22 for the second.

Compared with Q19N, Q19I is higher in protein stability index: 2.92 for the first, 3.54 for the second.

First: Q19E
Second: Q19G
The protein stability index of the first is lower: 2.52 for the first, 2.64 for the second.

Going from Q19Y to Q19P, the protein stability index falls from 3.25 to 3.02.

First: Q19C
Second: Q19F
The protein stability index of the first is lower: 3.17 for the first, 3.35 for the second.

Compared with Q19M, Q19L is higher in protein stability index: 3.27 for the first, 3.4 for the second.

Compared with Q19W, Q19V is higher in protein stability index: 1.62 for the first, 3.84 for the second.

Going from Q19D to Q19A, the protein stability index falls from 4.39 to 2.23.

First: T23Y
Second: T23L
The protein stability index of the first is lower: 1.32 for the first, 2.25 for the second.

Going from T23M to T23F, the protein stability index falls from 3.15 to 2.29.

First: T23I
Second: T23R
The protein stability index of the first is higher: 2.69 for the first, 1.4 for the second.

First: T23D
Second: T23P
The protein stability index of the first is higher: 3.86 for the first, 2.61 for the second.

First: T23A
Second: T23S
The protein stability index of the first is lower: 1.8 for the first, 2.78 for the second.

Compared with T23N, T23H is lower in protein stability index: 3.21 for the first, 3.17 for the second.

First: T23Q
Second: T23G
The protein stability index of the first is lower: 1.9 for the first, 2.76 for the second.

First: T23K
Second: G20I
The protein stability index of the first is lower: 2.39 for the first, 3 for the second.

Going from G20Y to G20S, the protein stability index falls from 3.45 to 3.02.

Going from G20L to G20T, the protein stability index falls from 3.19 to 2.89.

Going from G20E to G20H, the protein stability index falls from 3.23 to 2.56.

First: G20F
Second: G20V
The protein stability index of the first is lower: 2.39 for the first, 2.89 for the second.

Compared with G20W, G20K is lower in protein stability index: 1.9 for the first, 1.61 for the second.

Going from G20D to G20R, the protein stability index rises from 2.18 to 3.81.

First: G20C
Second: G20A
The protein stability index of the first is lower: 2.06 for the first, 2.49 for the second.

Compared with G20N, G20Q is lower in protein stability index: 2.19 for the first, 2.14 for the second.

Compared with G20P, V24C is higher in protein stability index: 2.25 for the first, 2.83 for the second.

Going from V24H to V24G, the protein stability index rises from 1.61 to 1.73.

Going from V24M to V24A, the protein stability index rises from 1.96 to 2.04.

First: V24F
Second: V24Q
The protein stability index of the first is higher: 2.35 for the first, 2.06 for the second.

Going from V24L to V24T, the protein stability index rises from 1.68 to 1.8.

Going from V24K to V24E, the protein stability index rises from 1.71 to 2.51.

Going from V24N to V24P, the protein stability index falls from 2.84 to 2.64.

Going from V24S to V24Y, the protein stability index falls from 3.01 to 2.51.

Going from V24R to V24D, the protein stability index falls from 1.69 to 1.63.

Going from V24I to R22T, the protein stability index falls from 3.42 to 2.44.

Going from R22F to R22H, the protein stability index rises from 1.87 to 3.33.

First: R22E
Second: R22L
The protein stability index of the first is lower: 2.82 for the first, 3.28 for the second.

First: R22P
Second: R22W
The protein stability index of the first is higher: 3.8 for the first, 1.93 for the second.

Going from R22I to R22V, the protein stability index rises from 1.73 to 2.33.

First: R22M
Second: R22D
The protein stability index of the first is higher: 2.53 for the first, 2.38 for the second.

First: R22N
Second: R22K
The protein stability index of the first is higher: 2.38 for the first, 1.71 for the second.

First: R22Y
Second: R22G
The protein stability index of the first is higher: 3.17 for the first, 1.45 for the second.

Going from R22A to F21C, the protein stability index falls from 3.1 to 2.35.

Going from F21W to F21A, the protein stability index falls from 2.21 to 1.9.

Going from F21R to F21H, the protein stability index falls from 1.82 to 1.74.

First: F21Q
Second: F21I
The protein stability index of the first is lower: 1.65 for the first, 2.09 for the second.

First: F21V
Second: F21E
The protein stability index of the first is lower: 1.82 for the first, 2.1 for the second.

Compared with F21L, F21M is lower in protein stability index: 2.67 for the first, 1.9 for the second.

Going from F21S to F21G, the protein stability index falls from 2.42 to 1.4.

First: F21D
Second: F21N
The protein stability index of the first is lower: 2.09 for the first, 2.87 for the second.

First: F21K
Second: F21Y
The protein stability index of the first is lower: 2.27 for the first, 2.9 for the second.

First: F21P
Second: F21T
The protein stability index of the first is higher: 2.33 for the first, 1.96 for the second.

Variants of: B2
Assay: as above
Conditions: c terminus: a fixed tail appended

First: G2E
Second: G2N
The protein stability index of the first is lower: 2.72 for the first, 4.75 for the second.

Going from G2K to G2T, the protein stability index rises from 2.49 to 4.66.

Going from G2P to G2M, the protein stability index falls from 3.53 to 2.57.

Compared with G2C, G2L is lower in protein stability index: 2.8 for the first, 1.66 for the second.

Going from G2Y to G2D, the protein stability index falls from 3.14 to 2.58.

First: G2H
Second: G2I
The protein stability index of the first is lower: 2.47 for the first, 3.05 for the second.

Going from G2R to G2S, the protein stability index falls from 3.47 to 1.91.

Compared with G2Q, Y1E is lower in protein stability index: 2.66 for the first, 1.92 for the second.

Going from Y1L to Y1C, the protein stability index rises from 1.73 to 3.63.

First: Y1N
Second: Y1M
The protein stability index of the first is lower: 1.77 for the first, 1.87 for the second.

Going from Y1S to Y1H, the protein stability index falls from 4.07 to 2.79.

Going from Y1K to Y1F, the protein stability index falls from 3.54 to 3.22.

Compared with S3I, S3H is lower in protein stability index: 3.48 for the first, 2.96 for the second.

Going from S3R to S3K, the protein stability index rises from 2.02 to 2.55.

First: S3Y
Second: S3E
The protein stability index of the first is higher: 2.74 for the first, 1.34 for the second.

Compared with S3T, S3P is lower in protein stability index: 2.22 for the first, 2.19 for the second.

Compared with S3V, S3D is higher in protein stability index: 3.33 for the first, 4.93 for the second.

S3W gave a protein stability index of 2.82.
